Data from the Human Domainome abundance scans (Beltran et al. 2025).
± gives the uncertainty stated by the source.

B1: Lysine-specific demethylase 5C, residues 319 to 373; numbered along this chain, P41229 (parent)
chain: AQFIESYVCRMCSRGDEDDKLLLCDGCDDNYHIFCLLPPLPEIPKGVWRCPKCVM
B2: Pre-mRNA-processing factor 40 homolog B, residues 274 to 332; numbered along this chain, Q6NWY9 (parent)
chain: SNREKAKQAFKELLRDKAVPSNASWEQAMKMVVTDPRYSALPKLSEKKQAFNAYKAQRE

Variants of: B1
Assay: abundance fitness (aPCA) (normalised: wild type 0, dead -1); higher = more abundant; growth selection in yeast, the domain comes from the species named
Details: Homo sapiens

Row | Variant | abundance fitness
1 | H32G | -1.01 ± 0.19
2 | K20L | -0.087 ± 0.099
3 | E17P | -0.1 ± 0.14
4 | E17Y | -0.285 ± 0.24
5 | C12A | -0.99 ± 0.38
6 | S6H | -0.294 ± 0.23
7 | E5H | -0.263 ± 0.28
8 | L21C | -0.304 ± 0.15
9 | F34A | -0.162 ± 0.1
10 | V8R | -0.075 ± 0.098
11 | D25C | -0.274 ± 0.12
12 | D25W | -0.383 ± 0.18
13 | K45Y | -0.553 ± 0.27
14 | K45E | -0.138 ± 0.16
15 | V54C | -0.097 ± 0.25
16 | R49V | -0.25 ± 0.15
17 | D18M | 0.107 ± 0.11
18 | L36V | -0.118 ± 0.1
19 | G15H | -0.391 ± 0.14
20 | L23R | 0.166 ± 0.065
21 | K52H | -0.184 ± 0.2
22 | K52R | 0.007 ± 0.096

Variants of: B2
Assay: as above
Details: Homo sapiens

Row | Variant | abundance fitness
23 | E46L | -0.73 ± 0.085
24 | E46C | -0.519 ± 0.12
25 | E46I | -0.872 ± 0.17
26 | E46D | 0.027 ± 0.14
27 | E46F | -1.03 ± 0.15
28 | E46G | -0.694 ± 0.055
29 | E46M | -0.413 ± 0.095
30 | E46R | -1.04 ± 0.072
31 | E46A | -0.466 ± 0.07
32 | E46T | -0.631 ± 0.11
33 | E46N | -0.566 ± 0.15
34 | E46H | -0.724 ± 0.18
35 | E46K | -0.939 ± 0.17
36 | E46P | -0.817 ± 0.11
37 | E46V | -0.672 ± 0.073
38 | E46Q | -0.147 ± 0.15
39 | E46Y | -0.755 ± 0.19
40 | E46S | -0.716 ± 0.083
41 | P42M | -0.189 ± 0.11
42 | P42N | -0.628 ± 0.17
43 | P42F | -0.749 ± 0.21
44 | P42L | -0.287 ± 0.086
45 | P42K | -0.13 ± 0.18
46 | P42C | -0.518 ± 0.1
47 | P42T | -0.093 ± 0.11

Row | Variant | abundance fitness
48 | P42A | -0.147 ± 0.07
49 | P42D | -0.023 ± 0.1
50 | P42Q | -0.316 ± 0.14
51 | P42E | 0.018 ± 0.079
52 | P42I | -0.283 ± 0.16
53 | P42H | -0.477 ± 0.22
54 | P42R | -0.326 ± 0.059
55 | P42V | -0.418 ± 0.071
56 | P42G | -0.156 ± 0.053
57 | P42W | -0.602 ± 0.084
58 | P42S | -0.131 ± 0.078
59 | A56S | -0.016 ± 0.069
60 | A56M | -0.127 ± 0.097
61 | A56Y | -0.351 ± 0.13
62 | A56H | -0.102 ± 0.13
63 | A56C | -0.451 ± 0.12
64 | A56R | -0.116 ± 0.057
65 | A56I | -0.261 ± 0.12
66 | A56F | -0.526 ± 0.16
67 | A56N | -0.18 ± 0.13
68 | A56K | -0.015 ± 0.086
69 | A56V | -0.076 ± 0.069
70 | A56W | -0.293 ± 0.079
71 | A56G | -0.242 ± 0.053
72 | A56Q | 0.027 ± 0.086

Row | Variant | abundance fitness
73 | A56P | -0.454 ± 0.1
74 | A56T | -0.122 ± 0.099
75 | A56L | 0.034 ± 0.074
76 | A50C | -0.008 ± 0.1
77 | A50L | -0.084 ± 0.075
78 | A50M | -0.076 ± 0.097
79 | A50D | -0.299 ± 0.13
80 | A50E | -0.224 ± 0.14
81 | A50P | -0.351 ± 0.12
82 | A50W | -0.627 ± 0.089
83 | A50N | -0.629 ± 0.13
84 | A50F | -0.485 ± 0.19
85 | A50K | -0.765 ± 0.12
86 | A50Y | -0.895 ± 0.23
87 | A50H | -0.606 ± 0.28
88 | A50G | -0.462 ± 0.066
89 | A50R | -0.818 ± 0.072
90 | A50T | -0.43 ± 0.1
91 | A50I | -0.194 ± 0.15
92 | A50S | -0.382 ± 0.074
93 | A50Q | -0.212 ± 0.084
94 | E59T | -0.109 ± 0.13
95 | E59V | 0.042 ± 0.1
96 | E59K | 0.055 ± 0.25
97 | E59M | 0.167 ± 0.41

Row | Variant | abundance fitness
98 | E59R | -0.189 ± 0.074
99 | E59Q | -0.033 ± 0.13
100 | E59G | -0.212 ± 0.074
101 | E59D | -0.203 ± 0.16
102 | E59F | -0.53 ± 0.23
103 | E59C | -0.216 ± 0.29
104 | E59H | -0.204 ± 0.22
105 | E59S | -0.397 ± 0.13
106 | E59W | -0.54 ± 0.13
107 | E59A | 0.184 ± 0.14
108 | E59L | -0.424 ± 0.14
109 | K47P | -0.365 ± 0.093
110 | K47V | -0.644 ± 0.07
111 | K47N | -0.718 ± 0.24
112 | K47M | -0.497 ± 0.11
113 | K47D | -0.41 ± 0.11
114 | K47E | -0.477 ± 0.11
115 | K47Q | -0.236 ± 0.12
116 | K47R | -0.142 ± 0.062
117 | K47L | -0.605 ± 0.075
118 | K47S | -0.46 ± 0.085
119 | K47A | -0.458 ± 0.079
120 | K47I | -0.972 ± 0.16
121 | K47T | -0.447 ± 0.11
122 | K47W | -0.765 ± 0.1

Row | Variant | abundance fitness
123 | K47H | -0.427 ± 0.16
124 | K47C | -0.606 ± 0.093
125 | K47F | -0.304 ± 0.12
126 | K47Y | -0.567 ± 0.14
127 | L41Q | -0.295 ± 0.12
128 | L41S | -0.519 ± 0.065
129 | L41K | -0.372 ± 0.095
130 | L41P | -0.295 ± 0.077
131 | L41W | -0.486 ± 0.081
132 | L41T | -0.214 ± 0.094
133 | L41M | -0.176 ± 0.12
134 | L41R | -0.552 ± 0.061
135 | L41A | -0.451 ± 0.065
136 | L41I | -0.268 ± 0.16
137 | L41Y | -0.34 ± 0.2
138 | L41E | -0.189 ± 0.084
139 | L41H | -0.785 ± 0.23
140 | L41C | -0.438 ± 0.14
141 | L41D | -0.439 ± 0.12
142 | L41V | -0.16 ± 0.073
143 | L41N | -0.443 ± 0.17
144 | K55S | -0.25 ± 0.075
145 | K55M | -0.356 ± 0.1
146 | K55Y | -0.644 ± 0.18
147 | K55C | 0.12 ± 0.11

Row | Variant | abundance fitness
148 | K55A | -0.304 ± 0.063
149 | K55E | -0.333 ± 0.08
150 | K55F | -0.652 ± 0.17
151 | K55V | -0.139 ± 0.061
152 | K55W | -0.947 ± 0.11
153 | K55T | -0.242 ± 0.091
154 | K55H | -0.258 ± 0.19
155 | K55R | -0.18 ± 0.057
156 | K55N | -0.337 ± 0.12
157 | K55D | -0.29 ± 0.11
158 | K55Q | -0.239 ± 0.12
159 | K55I | -0.11 ± 0.095
160 | K55P | -0.359 ± 0.093
161 | F51K | -0.371 ± 0.22
162 | F51G | -0.28 ± 0.35
163 | F51S | -0.463 ± 0.41
164 | F51W | -0.61 ± 0.33
165 | K48E | -0.344 ± 0.11
166 | K48Y | -0.259 ± 0.17
167 | K48R | -0.196 ± 0.078
